# Test results as given in paper PMC4585734, “RBM45 homo-oligomerization mediates association with ALS-linked proteins and stress granules” (Scientific Reports, 2015).
# Residue numbers refer to the chain shown, from its start. Values joined by “and” are separate entries in the source; they are usually repeats but may differ in a detail not shown here. Equal entries are not always repeated.
# B1: HA-RBM45 deletion construct D2 (Δ230–234) (natural protein, human, UniProt Q8IUH3-3 1-474, looked up)
# chain: MDEAGSSASGGGFRPGVDSLDEPPNSRIFLVISKYTPESVLRERFSPFGDIQDIWVVRDKHTKESKGIAFVKFARSSQACRAMEEMHGQCLGPNDTKPIKVFIAQSRSSGSHRDVEDEELTRIFVMIPKSYTEEDLREKFKVYGDIEYCSIIKNKVTGESKGLGYVRYLKPSQAAQAIENCDRSFRAILAEPKNKASESSEQDYYSNMRQEALGHEPRVNMFPFEQQSEKNDSRGQEAISKRLSVVSRVPFTEEQLFSIFDIVPGLEYCEVQRDPYSNYGHGVVQYFNVASAIYAKYKLHGFQYPPGNRIGVSFIDDGSNATDLLRKMATQMVAAQLASMVWNNPSQQQFMQFGGSSGSQLPQIQTDVVLPSCKKKAPAETPVKERLFIVFNPHPLPLDVLEDIFCRFGNLIEVYLVSGKNVGYAKYADRISANDAIATLHGKILNGVRLKVMLADSPREESNKRQRTY
# notes: source: HEK293, transfected, in lysate or in cells; not shown: 2xHA, N-terminal, kept
# B2: truncated HA-RBM45 variant (107–474) that lacks RRM1 (domain or fragment, human, UniProt Q8IUH3-3 107-474, looked up)
# chain: RSSGSHRDVEDEELTRIFVMIPKSYTEEDLREKFKVYGDIEYCSIIKNKVTGESKGLGYVRYLKPSQAAQAIENCDRSFRAILAEPKNKASESSEQDYYSNMRQEALGHEPRVNMFPFEQQSEFSSFDKNDSRGQEAISKRLSVVSRVPFTEEQLFSIFDIVPGLEYCEVQRDPYSNYGHGVVQYFNVASAIYAKYKLHGFQYPPGNRIGVSFIDDGSNATDLLRKMATQMVAAQLASMVWNNPSQQQFMQFGGSSGSQLPQIQTDVVLPSCKKKAPAETPVKERLFIVFNPHPLPLDVLEDIFCRFGNLIEVYLVSGKNVGYAKYADRISANDAIATLHGKILNGVRLKVMLADSPREESNKRQRTY
# notes: source: HEK293, transfected, in cells; not shown: 2xHA, N-terminal, kept
# B3: HA-RBM45 deletion construct D1 (Δ212–216) (natural protein, human, UniProt Q8IUH3-3 1-474, looked up)
# chain: MDEAGSSASGGGFRPGVDSLDEPPNSRIFLVISKYTPESVLRERFSPFGDIQDIWVVRDKHTKESKGIAFVKFARSSQACRAMEEMHGQCLGPNDTKPIKVFIAQSRSSGSHRDVEDEELTRIFVMIPKSYTEEDLREKFKVYGDIEYCSIIKNKVTGESKGLGYVRYLKPSQAAQAIENCDRSFRAILAEPKNKASESSEQDYYSNMRQEPRVNMFPFEQQSEFSSFDKNDSRGQEAISKRLSVVSRVPFTEEQLFSIFDIVPGLEYCEVQRDPYSNYGHGVVQYFNVASAIYAKYKLHGFQYPPGNRIGVSFIDDGSNATDLLRKMATQMVAAQLASMVWNNPSQQQFMQFGGSSGSQLPQIQTDVVLPSCKKKAPAETPVKERLFIVFNPHPLPLDVLEDIFCRFGNLIEVYLVSGKNVGYAKYADRISANDAIATLHGKILNGVRLKVMLADSPREESNKRQRTY
# notes: also called HA-RBM45 D1 mutant; source: HEK293, transfected, in lysate or in cells; not shown: 2xHA, N-terminal, kept
# B4: HA-RBM45 NLS M2/3 double mutant (natural protein, human, UniProt Q8IUH3-3 1-474, looked up)
# chain: MDEAGSSASGGGFRPGVDSLDEPPNSRIFLVISKYTPESVLRERFSPFGDIQDIWVVRDKHTKESKGIAFVKFARSSQACRAMEEMHGQCLGPNDTKPIKVFIAQSRSSGSHRDVEDEELTRIFVMIPKSYTEEDLREKFKVYGDIEYCSIIKNKVTGESKGLGYVRYLKPSQAAQAIENCDRSFRAILAEPKNKASESSEQDYYSNMRQEALGHEPRVNMFPFEQQSEFSSFDKNDSRGQEAISKRLSVVSRVPFTEEQLFSIFDIVPGLEYCEVQRDPYSNYGHGVVQYFNVASAIYAKYKLHGFQYPPGNRIGVSFIDDGSNATDLLRKMATQMVAAQLASMVWNNPSQQQFMQFGGSSGSQLPQIQTDVVLPSCKKKAPAETPVKERLFIVFNPHPLPLDVLEDIFCRFGNLIEVYLVSGKNVGYAKYADRISANDAIATLHGKILNGVALAVMLADSPAEESNAAQATY
# notes: also called NLS-M2/3 mutant; HA-RBM45-NLS mutant; source: HEK293, transfected, in lysate or in cells; not shown: 2xHA, N-terminal, kept
# B5: HA-tagged full-length RBM45 (natural protein, human, UniProt Q8IUH3-3 1-474, looked up)
# chain: B4 chain with A454R, A456K, A464R, A469K, A470R, A472R
# notes: pcDNA3; also called HA-RBM45; HA-RBM45 wild-type; source: HEK293, transfected, in lysate or in cells; not shown: 2xHA, N-terminal, kept
# B6: FLAG-tagged RBM45 (full-length FLAG-RBM45) (natural protein, human, UniProt Q8IUH3-3 1-474, looked up)
# chain: B4 chain with A454R, A456K, A464R, A469K, A470R, A472R
# notes: pcDNA3; band of 56.6 kD; also called 3xFLAG-RBM45; FLAG-RMB45; source: HEK293, transfected or stably expressing, in lysate or in cells; not shown: 3xFLAG, N-terminal, kept
# Molecular target: the molecule itself
# Experiment: cross-linking; in vivo DSS cross-linking (1 mM DSS for 10 minutes, room temperature, PBS) of HEK293 expressing HA-RBM45 constructs; SDS-PAGE and immunoblot
row,Protein,stoichiometry N
1,B1,5
2,B2,5
3,B3,5
4,B4,5
5,B5,5 and 10

# Molecular target: the molecule itself
# Experiment: cross-linking; in vivo DSS cross-linking of live HEK293 stably expressing FLAG-RBM45, DSS 0 to 5000 uM; denaturing SDS-PAGE and immunoblot
row,Protein,stoichiometry N
1,B6,2 and 5
